According to patent US20100261245:
pKd: −log10 of the molar value.

System: T1, VEGF, P15692-4
T1 sequence: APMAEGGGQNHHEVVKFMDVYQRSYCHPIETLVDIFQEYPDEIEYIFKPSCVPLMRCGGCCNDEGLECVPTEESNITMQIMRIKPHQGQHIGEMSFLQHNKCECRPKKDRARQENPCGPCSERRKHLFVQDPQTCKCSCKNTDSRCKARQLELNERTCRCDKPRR
Experiment: SPR
Details: BIAcore 2000, VEGF immobilized, aptamer 30-500 nM

Sequence	pKd (2'-OMe at all positions as printed, 5'-PEG 20 kDa (mPEG-SPA via 5' amine), PBS pH 7.4)	pKd (2'-OMe at all positions as printed (Am, Um, Gm, Cm), 5' terminal amine group stated for the PEGylation precursor, PBS pH 7.4 stated for the PEGylated aptamer)
AUGCAGUUUGAGAAGUCGCGCAU [PEGylated anti-VEGF 2'-OMe-RNA aptamer]	7.06	–
AUGCAGUUUGAGAAGUCGCGCAU [anti-VEGF 2'-OMe-RNA aptamer]	–	8.73
